Laboratory results: patent publication US20150307617A1 (Genentech, published 2015)

T1: mouse OX40 on T cells (mouse, UniProt P47741 20-272)
T1 construct: whole, on cells
T1 sequence (looked up): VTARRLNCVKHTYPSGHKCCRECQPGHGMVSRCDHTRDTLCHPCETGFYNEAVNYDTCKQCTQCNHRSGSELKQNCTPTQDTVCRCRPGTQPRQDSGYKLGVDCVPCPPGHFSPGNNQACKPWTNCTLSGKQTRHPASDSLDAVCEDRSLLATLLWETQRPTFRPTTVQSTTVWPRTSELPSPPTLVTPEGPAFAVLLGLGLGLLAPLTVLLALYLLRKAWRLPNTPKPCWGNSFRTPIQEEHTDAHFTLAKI

T2: rat OX40 on T cells (rat, UniProt P15725 20-271)
T2 construct: whole, on cells
T2 sequence (looked up): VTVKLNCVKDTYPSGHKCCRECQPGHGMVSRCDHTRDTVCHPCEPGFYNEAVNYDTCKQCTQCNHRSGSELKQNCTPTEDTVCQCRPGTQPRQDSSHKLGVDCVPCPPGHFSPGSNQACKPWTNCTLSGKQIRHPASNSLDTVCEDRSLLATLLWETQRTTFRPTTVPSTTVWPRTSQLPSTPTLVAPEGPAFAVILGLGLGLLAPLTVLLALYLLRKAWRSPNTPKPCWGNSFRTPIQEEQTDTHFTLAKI

T3: human OX40 expressed on the cell surface (Hut78-hOX40 cells; human T cells) (human, UniProt P43489 29-277)
T3 construct: Hut78 T cell line stably transfected or retrovirally transduced with human OX40, or native OX40 on human peripheral blood T cells; also called huOX40; Hut78-OX40
T3 sequence: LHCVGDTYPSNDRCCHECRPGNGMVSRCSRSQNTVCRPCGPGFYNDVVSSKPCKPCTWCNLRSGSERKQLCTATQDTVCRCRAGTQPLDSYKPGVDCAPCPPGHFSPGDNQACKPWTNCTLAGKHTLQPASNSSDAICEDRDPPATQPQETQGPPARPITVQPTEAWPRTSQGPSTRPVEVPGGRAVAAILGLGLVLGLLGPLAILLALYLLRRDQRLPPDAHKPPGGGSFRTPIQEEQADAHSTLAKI


Assays:
[1] = target: T4, cynomolgus monkey OX40 on T cells (cynomolgus monkey); assay: flow cytometry, Alexa Fluor 647-labeled antibody on cynomolgus monkey T cells, average (± SD)
T4 construct: whole, on cells; also called cynomolgus OX40
Protocol: (§1) Cells were blocked with 10% human, cynomolgus monkey, rat or mouse serum respectively in PBS for 15 minutes at 4° C. and plated in a 96 well plate at the equivalent of 100 μL of whole blood per reaction.

[2] = target: T4, cynomolgus monkey OX40 on T cells; assay: flow cytometry, Alexa Fluor 647-labeled antibody on cynomolgus monkey T cells, assay 1
Protocol: as §1

[3] = target: T4, cynomolgus monkey OX40 on T cells; assay: flow cytometry, Alexa Fluor 647-labeled antibody on cynomolgus monkey T cells, assay 2
Protocol: as §1

[4] = target: T1, mouse OX40 on T cells; assay: flow cytometry, Alexa Fluor 647-labeled antibody on peripheral blood T cells
[5] = target: T2, rat OX40 on T cells; assay: as above
[6] = target: T4, cynomolgus monkey OX40 on T cells; assay: flow cytometry, Alexa Fluor 647-labeled antibody on cynomolgus monkey T cells, average in molar units
Protocol: as §1

[7] = target: T3, human OX40 expressed on the cell …; assay: flow cytometry titration of OX40L-flag on Hut78-hOX40 cells, 3-fold dilutions from 10 ug/mL, detected with anti-flag-Alexa Fluor 555
Protocol: (§2) After 30 min of incubation at 4 C, cells were washed twice in Wash Buffer (PBS/0.5% FBS/2 mM EDTA), followed by data acquisition on FACSCantoII flow cytometer (BD). Data were then analyzed by Flowjo program (TreeStar) and the mean fluorescent intensity (MFI) was captured. […] A titration of OX40L-flag binding was carried out in a similar fashion, except that OX40L-flag was titrated 3 fold down starting from 10 ug/mL.

[8] = target: T3, human OX40 expressed on the cell …; assay: flow cytometry competition on Hut78-hOX40 cells: OX40L-flag titrated first, then 200 ng/mL 1A7.gr.1-Alexa Fluor 647 added; readout is the MFI of 1A7.gr.1
Protocol: as §2
After 30 min of incubation at 4 C, cells were washed twice in Wash Buffer, followed by data acquisition on FACSCantoII flow cytometer (BD).

Binder	EC50 [1]	EC50 [2]	EC50 [3]	binding result [4]	binding result [5]	EC50 [6]	EC50 (read off the curve) [7]	IC50 (read off the curve) [8]
1A7.gr.1 (antibody, V domains shown, human IgG1; 125I-labeled (radioligand assay) or Alexa Fluor 647-labeled (flow cytometry) in some assays; also called mab 1A7.gr.1; MOXR0916) VH: EVQLVQSGAEVKKPGASVKVSCKASGYTFTDSYMSWVRQAPGQGLEWIGDMYPDNGDSSYNQKFRERVTITRDTSTSTAYLELSSLRSEDTAVYYCVLAPRWYFSVWGQGTLVTVSS VL: DIQMTQSPSSLSASVGDRVTITCRASQDISNYLNWYQQKPGKAPKLLIYYTSRLRSGVPSRFSGSGSGTDFTLTISSLQPEDFATYYCQQGHTLPPTFGQGTKVEIK	0.142 µg/mL	0.143 µg/mL	0.142 µg/mL	no binding (tested: titrated from 9 µg/mL)	no binding (tested: titrated from 9 µg/mL)	946 pM	–	–
Human OX40L-flag (ligand, UniProt P23510 51-183, looked up, Made at Genentech; not shown: flag tag) QVSHRYPRIQSIKVQFTEYKKEKGFILTSQKEDEIMKVQNNSVIINCDGFYLISLKGYFSQEVNISLHYQKDEEPLFQLKKVRSVNSLMVASLTYKDKVYLNVTTDNTSLDDFHVNGGELILIHQNPGEFCVL	–	–	–	–	–	–	~0.2 µg/mL	~0.2 µg/mL
